The record followed here is US20180057581A1 (MorphoSys, published 2018).

Experiment [1] concerns the target T1, human M-CSF (human, UniProt P09603 33-255, limits assumed).
T1 construct: also called M-CSF (human); CSF-1
T1 sequence: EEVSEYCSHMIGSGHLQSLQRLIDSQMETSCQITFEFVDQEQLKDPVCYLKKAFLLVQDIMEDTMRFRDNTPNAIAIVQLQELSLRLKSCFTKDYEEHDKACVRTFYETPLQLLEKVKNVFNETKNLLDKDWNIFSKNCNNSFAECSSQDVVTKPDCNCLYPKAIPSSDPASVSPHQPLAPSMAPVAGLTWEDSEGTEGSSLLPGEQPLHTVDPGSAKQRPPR
Kind of experiment: soluble equilibrium titration (SET), Fab, monovalent. Here is the method:
(§1) The monovalent affinity of the antibodies of the present disclosure was determined by soluble equilibrium titration (Haenel et al. (2005) Anal Biochem 339, 182-4).

The target of experiment [2] is T2, Recombinant cynomolgus monkey sgM-CSF (cynomolgus (Macaca fascicularis), UniProt P09603 33-255 (human entry), limits assumed).
T2 construct: used also where only 'cynomolgus M-CSF' is printed (ELISA result, SET); also called cynomolgus sgM-CSF; cyno sgM-CSF
T2 chain: T1 sequence with V186M, E192D
The experiment is described as above. Here is the method:
as §1

In experiment [3] the target is T3, Recombinant human sgM-CSF (human, UniProt P09603 33-255).
T3 construct: also called human secreted glycosylated M-CSF; Human M-CSF
T3 sequence: T1 sequence
Kind of experiment: Table 12 summary, criterion Binding, Human M-CSF; assay and antibody format not named there. Here is the method:
as §1

Experiment [4] addresses T1, human M-CSF. Kind of experiment: ELISA. How it is done:
(§2) BSA was used as a negative control substrate.
(§3) After blocking of plates with 5% skim milk powder in PBS, Fab-containing E. coli lysates, IgG-containing cell culture supernatants or purified IgG or Fab proteins were added. Binding of Fabs or IgGs was detected by F(ab)₂ specific goat anti-human IgG conjugated to alkaline phosphatase (Dianova Cat# 109-055-097; diluted 1:5000) using Attophos fluorescence substrate (Roche, #11681982001). Fluorescence emission at 535 nm was recorded with excitation at 430 nm.
A general note: An ELISA detects its analyte on a solid surface through an enzyme-linked reagent.

Experiment [5] concerns the target T2, Recombinant cynomolgus monkey sgM-CSF. In words: ELISA. Here is the method:
as §2, §3

The target of the next experiment is GM-CSF (Homo sapiens (Human), UniProt P04141 18-144). In words: not described (Table 12, criterion Binding).
The target in experiment [6] is T3, Recombinant human sgM-CSF. In words: cell-based or functional assay.
Experiment [7] deals with T2, Recombinant cynomolgus monkey sgM-CSF. Kind of experiment: cell-based or functional assay.
For experiment [8] the target is unchanged. Kind of experiment: Receptor binding assay, inhibition of cynomolgus M-CSF binding to M-CSF receptor (competitor CSF1-R-Fc); Table 12 summary. Here is the method:
Complexes were then transferred to 384 well MSD plates coated with 2 μg/ml of the corresponding receptor. Plates were then washed and incubated with the streptavidin/ECL conjugate for 2 h with shaking at room temperature. 35 μl MSD read buffer T with surfactant was then added per well and subsequently measured using MSD Sector Imager 6000.

The target of experiment [9] is T3, Recombinant human sgM-CSF. In words: Receptor binding assay, inhibition of human M-CSF binding to M-CSF receptor (competitor CSF1-R-Fc); Table 12 summary.

Residue numbers refer to the chain shown, from its start.

Chain of GM-CSF (P04141 18-144 limits assumed): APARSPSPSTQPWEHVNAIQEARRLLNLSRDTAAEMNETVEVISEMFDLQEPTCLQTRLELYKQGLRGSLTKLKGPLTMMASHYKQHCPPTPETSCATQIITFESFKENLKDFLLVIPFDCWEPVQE

B1: Camille, Fab (Fab, V domains shown)
VH: QVQLQQSGPGLVKPSQTLSLTCAISGESVSTSSAAWNWIRQSPSRGLEWLGRTYYRSKWKHEYAVSVKSRITINPDTSKNQFSLQLNSVTPEDTAVYYCARDRYYYSAFDYWGQGTLVTVSS
VL: QSALTQPASVSGSPGQSITISCTGTSSDVGGYNSVSWYQQHPGKAPKLLIYAVSNRPSGVSNRFSGSKSGNTASLTISGLQAEDEADYYCASYDERFTRVFGGGTKLTVLG
Usually Kd stands for the free concentration of one partner at which half of the binding sites on the other are occupied at equilibrium, for simple one-to-one binding. B1: the Kd came out at 0.018 nM with human M-CSF [1] and 0.025 nM in [2].

B2: Madeleine, Fab (Fab, V domains shown)
VH: B1 VH with E27D, T31S, S32N, H61K, V65Q
VL: B1 VL with L49M
B2: the values for the dissociation constant (Kd) (with human M-CSF [1]; in experiment [2]) were 0.028 nM and 0.03 nM, respectively.

B3: Meriem, Fab (Fab, V domains shown)
VH: B1 VH with E27D, H61K, V65Q
VL: B1 VL with L49I
Consider B3, for which the Kd with human M-CSF [1] stood at 0.011 nM; in [2], 0.013 nM.

B4: Maelle, Fab (Fab, V domains shown)
VH: B1 VH with H61K, V65Q
VL: B1 VL with L49I
As for B4, the Kd in the experiment with human M-CSF [1] was found to be 0.013 nM; in [2] it was 0.027 nM.

B5: Laurine, Fab (Fab, V domains shown)
VH: B1 VH with E27D, T31S, S32N, H61K, V65Q
VL: B1 VL with Q1D, S2I, L49M
Consider B5, for which the dissociation constant (Kd) in the experiment with human M-CSF [1] is 0.096 nM; in experiment [2], 0.15 nM.

B6: 8.10.3F (format not stated) (antibody, V domains shown)
VH: EVQLVESGGGLVQPGGSLRLSCAASGFTFSSFSMTWVRQAPGKGLEWVSYISSRSSTISYADSVKGRFTISRDNAKNSLYLQMNSLRDEDTAVYYCARDPLLAGATFFDYWGQGTLVTVSS
VL: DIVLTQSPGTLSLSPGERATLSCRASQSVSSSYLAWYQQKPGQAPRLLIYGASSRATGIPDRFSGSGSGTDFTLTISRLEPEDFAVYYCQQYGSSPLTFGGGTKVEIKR
notes: Prior art antibody; also called 8.10.F3
As a reminder, the IC50 is the point on the concentration scale where inhibition reaches its midpoint. As for B6, in [3], the Kd came out at 0.038 nM. Also, the ELISA fluorescence units (with human M-CSF [4]; in experiment [5]) was over 35000 units in each case. The binding result in the experiment with GM-CSF is “no binding”. The “Cell viability assay (IC50), Human M-CSF” value in experiment [6] turned out to be 0.071 nM. Moreover, the “Cell viability assay (IC50), Cynomolgus M-CSF” value in [7] worked out at 0.085 nM. The IC50 in experiment [8] turned out to be 0.021 nM; in experiment [9], 0.031 nM.

B7: HeRX1-10G1 (format not stated) (antibody, V domains shown)
VH: QVQLQESGPGLVKPSQTLSLTCTVSDYSITSDYAWNWIRQFPGKGLEWMGYISYSGSTSYNPSLKSRITISRDTSKNQFSLQLNSVTAADTAVYYCASFDYAHAMDYWGQGTTVTVSS
VL: DIVLTQSPAFLSVTPGEKVTFTCQASQSIGTSIHWYQQKTDQAPKLLIKYASESISGIPSRFSGSGSGTDFTLTISSVEAEDAADYYCQQINSWPTTFGGGTKLEIKR
notes: Prior art antibody
For B7, in experiment [3], the Kd is over 1 nM. Further, the ELISA fluorescence units (in the experiment with human M-CSF [4]; in experiment [5]) was over 35000 units in each case. Moreover, in the experiment with GM-CSF, the binding result is “no binding”. In addition, in [6], the “Cell viability assay (IC50), Human M-CSF” value was 0.004 nM. Also, in [7], the “Cell viability assay (IC50), Cynomolgus M-CSF” value was determined as 0.004 nM. Besides, the IC50 is 0.028 nM in experiment [8] and 0.027 nM in experiment [9].

B8: Romaine, Fab (Fab, V domains shown)
VH: EVQLVESGGGLVKPGGSLRLSCAASGFTFSIYAMSWVRQAPGKGLEWVGRIKSNADGGTTEYAAPVKGRFTISRDDSKNTLYLQMNSLKTEDTAVYYCARMRYYSDLYFDPWGQGTLVTVSS
VL: DIELTQPPSVSVSPGQTASITCSGDAIGSKYVHWYQQKPGQAPVLVISKDNKRPSGIPERFSGSNSGNTATLTISGTQAEDEADYYCQTATVSSYWWVFGGGTKLTVLG
B8: the Kd worked out at 0.013 nM in the experiment with human M-CSF [1] and 0.007 nM in experiment [2].
